Experimental data as given in patent publication US20170022281A1 (AbbVie / Abbott, published 2017).
Numbering of substitutions follows the chain as printed.

B1: Ab28 (antibody, human IgG1, kappa)
heavy: not shown
light: DVVMTQTPLSLSVTPGQPASISCRSSQRLVHSNGNTYLHWYLQKPGQSPQLLIYKVSNRFSGVPDRFSGSGSGTDFTLKISRVEAEDVGVYYCSQSTHVPWTFGGGTKVEIKRTVAAPSVFIFPPSDEQLKSGTASVVCLLNNFYPREAKVQWKVDNALQSGNSQESVTEQDSKDSTYSLSSTLTLSKADYEKHKVYACEVTHQGLSSPVTKSFNRGEC
notes: humanized from Ab5; G1; also called Ab2 HC.1 and Ab2 LC.1b
B2: Ab26 (antibody, human IgG1, kappa)
heavy: not shown
light: B1 light with V2I
notes: humanized from Ab5; G1; also called Ab HC.1 and Ab2 LC.1
B3: Ab29 (antibody, human IgG1, kappa)
heavy: not shown
light: B1 light with V2I
notes: humanized from Ab5; G1; also called Ab HC.1a and Ab2 LC.1
B4: Ab31 (antibody, human IgG1, kappa)
heavy: not shown
light: B1 light
notes: humanized from Ab5; G1; also called Ab2 HC.1a and Ab2 LC.1b
B5: Ab27 (antibody, human IgG1, kappa, V domains shown)
VH: EVQLVQSGAEVKKPGSSVKVSCKASGYTFTSFWMHWVRQAPGQGLEWMGVIDPSDTYTNYNQKFKGRVTITADESTSTAYMELSSLRSEDTAVYYCARGDYSNWFTYWGQGTLVTVSS
VL: DVVMTQTPLSLSVTPGQPASISCRSSQRLVHSNGNTYLHWYLQKPGQSPQLLIYKVSNRFSGVPDRFSGSGSGTDFTLKISRVEAEDVGVYFCSQSTHVPWTFGGGTKVEIKR
notes: humanized from Ab5; G1; also called Ab2 HC.1 and Ab2 LC.1a
B6: Ab46 (antibody, human IgG1, kappa, V domains shown)
VH: EVQLVQSGAEVKKPGASVKVSCKASGYTFTDYNIHWVRQAPGQGLEWMGYIYPNNDGTGYNQKFKSRVTMTTDTSTSTAYMELRSLRSDDTAVYYCARGDGNYVGDMDYWGQGTTVTVSS
VL: DIQMTQSPSSLSASVGDRVTITCRASENIYSYLAWYQQKPGKAPKLLVYNAKTLAEGVPSRFSGSGSGTDFTLTISSLQPEDFATYYCQHHYATPFTFGQGTKLEIKR
notes: humanized from Ab8; G1; also called Ab3 HC.1 and Ab3 LC.1b
B7: Ab45 (antibody, human IgG1, kappa, V domains shown)
VH: B6 VH
VL: B6 VL with A43P
notes: humanized from Ab8; G1; also called Ab3 HC.1 and Ab3 LC.1a

Biological target: T1, cyno PRLR ECD-his6 protein (cyno)
T1 chain: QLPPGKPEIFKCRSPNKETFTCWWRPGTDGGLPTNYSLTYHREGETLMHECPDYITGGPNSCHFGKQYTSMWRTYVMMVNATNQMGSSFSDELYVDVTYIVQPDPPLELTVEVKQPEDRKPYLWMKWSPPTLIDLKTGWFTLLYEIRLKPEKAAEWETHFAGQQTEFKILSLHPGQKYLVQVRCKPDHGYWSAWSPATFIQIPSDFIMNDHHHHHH
Test: ELISA on ECD
Description: (§1) Plates were blocked for 1 hour with Superblock (Pierce) and washed (3×) with wash buffer (lx PBS (pH 7.4), 0.05% Tween 20). ECD proteins were bound to the appropriate antibody (1 hour) in binding buffer (wash buffer plus 10% Superblock), washed (3×, wash buffer), and then incubated with serial dilutions of antibodies (1 hour) in binding buffer. After washing (3×, wash buffer), secondary antibodies conjugated to HRP were bound (1 hour) in binding buffer, washed (3×, wash buffer), and incubated with TMB substrate (Pierce) to develop signal for 3-5 minutes, stopped with 2N H₂SO₄ and scanned at […]. Curves were fit with GraphPad 5 (Prizm) and EC50's were determined with curve fitting function of GraphPad 5.

Binder	EC50 [nM]
B1	0.0965
B2	0.151
B3	0.153
B4	0.256
B5	0.102
B6	0.0814
B7	0.201

Biological target: T2, human PRLR ECD-Fc fusion protein (human, UniProt P16471 25-233)
T2 construct: not shown: Fc region (captured by goat anti-human Fc)
T2 sequence: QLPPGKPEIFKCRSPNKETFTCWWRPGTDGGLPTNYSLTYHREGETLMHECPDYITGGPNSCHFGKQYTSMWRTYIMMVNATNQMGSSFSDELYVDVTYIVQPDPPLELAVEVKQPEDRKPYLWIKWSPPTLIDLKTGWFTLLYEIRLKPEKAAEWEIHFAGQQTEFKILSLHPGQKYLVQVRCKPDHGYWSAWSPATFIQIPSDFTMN
Test: ELISA on ECD
Description: as §1

Binder	EC50 [nM]
B3	0.269
B4	0.453
B5	0.17
B6	0.0626
B7	0.0684

Biological target: T3, mouse PRLR ECD-Fc fusion protein (mouse, UniProt Q08501 20-229)
T3 construct: extracellular domain; not shown: Fc region (captured by goat anti-human Fc)
T3 sequence (looked up): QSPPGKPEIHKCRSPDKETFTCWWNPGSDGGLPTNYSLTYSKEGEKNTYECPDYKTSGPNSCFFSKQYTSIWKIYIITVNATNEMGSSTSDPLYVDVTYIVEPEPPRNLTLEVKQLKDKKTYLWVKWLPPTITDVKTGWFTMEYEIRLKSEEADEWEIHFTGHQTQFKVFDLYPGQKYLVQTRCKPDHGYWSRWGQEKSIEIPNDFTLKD
Test: ELISA on ECD
Description: as §1

Binder	EC50 [nM]
B1	0.292
B2	0.201
B3	0.238
B4	0.333
B5	0.185
B6	0.568
B7	0.978

Biological target: T4, rat PRLR ECD-Fc fusion protein (rat, UniProt P05710 20-229)
T4 construct: extracellular domain; not shown: Fc region (captured by goat anti-human Fc)
T4 sequence (looked up): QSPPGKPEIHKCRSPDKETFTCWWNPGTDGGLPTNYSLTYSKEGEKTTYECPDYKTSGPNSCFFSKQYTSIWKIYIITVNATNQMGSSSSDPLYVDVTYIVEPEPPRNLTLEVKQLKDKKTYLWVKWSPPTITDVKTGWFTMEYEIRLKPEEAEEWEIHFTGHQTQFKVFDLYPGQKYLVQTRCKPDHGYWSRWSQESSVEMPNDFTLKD
Test: ELISA on ECD
Description: as §1

Binder	EC50 [nM]
B1	0.416
B2	0.164
B3	0.689
B4	0.718
B5	0.125

Biological target: T5, murine PRLR (Biacore antigen) (murine, UniProt Q08501 20-229, limits assumed)
T5 construct: also called muPRLR
T5 sequence (looked up): T3 sequence (looked up)
Test: SPR Biacore
How it was run: (§2)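 Association rate, dissociation rate and dissociation constant were measured by surface plasmon resonance on a Biacore instrument. PRLR antigen was tested at 600 nM, 66.67 nM and 7.41 nM, a 3-point, 9-fold dilution series. Constants came from a 1:1 binding model fit (local Rmax, mass-transport term included) in Biacore T200 Evaluation Software.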

Binder	Kd [nM]	koff [s⁻¹]	kon [M⁻¹ s⁻¹]
B1	52	0.00606	117000
B3	53	0.00634	120000
B4	55.7	0.00682	122000
B5	38.3	0.00512	134000

Biological target: T6, cyno PRLR (Biacore antigen) (cyno, UniProt A0A2K5WXK1 25-234)
T6 construct: also called cyPRLR
T6 sequence: T1 chain
Test: SPR Biacore
How it was run: as §2

Binder	Kd [nM]	koff [s⁻¹]	kon [M⁻¹ s⁻¹]
B1	1.97	0.000619	315000
B3	2.24	0.000675	301000
B4	2.08	0.000643	310000
B5	1.56	0.00052	333000

Biological target: T7, human PRLR (Biacore antigen) (human, UniProt P16471 25-234, limits assumed)
T7 construct: The construct injected over captured antibody is not described (a soluble form is likely); also called huPRLR
T7 sequence: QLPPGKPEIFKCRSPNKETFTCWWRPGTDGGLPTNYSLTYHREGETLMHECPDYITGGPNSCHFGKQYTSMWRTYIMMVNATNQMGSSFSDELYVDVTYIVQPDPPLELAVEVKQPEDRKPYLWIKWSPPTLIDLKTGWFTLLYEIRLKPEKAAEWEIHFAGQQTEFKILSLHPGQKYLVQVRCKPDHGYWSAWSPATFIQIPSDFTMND
Test: SPR Biacore
How it was run: as §2

Binder	Kd [nM]	koff [s⁻¹]	kon [M⁻¹ s⁻¹]
B3	1.79	0.00056	313000
B4	1.67	0.000537	322000
B5	1.25	0.000443	356000

Biological target: T8, human PRLR on cells (human, UniProt P16471 25-622)
T8 sequence: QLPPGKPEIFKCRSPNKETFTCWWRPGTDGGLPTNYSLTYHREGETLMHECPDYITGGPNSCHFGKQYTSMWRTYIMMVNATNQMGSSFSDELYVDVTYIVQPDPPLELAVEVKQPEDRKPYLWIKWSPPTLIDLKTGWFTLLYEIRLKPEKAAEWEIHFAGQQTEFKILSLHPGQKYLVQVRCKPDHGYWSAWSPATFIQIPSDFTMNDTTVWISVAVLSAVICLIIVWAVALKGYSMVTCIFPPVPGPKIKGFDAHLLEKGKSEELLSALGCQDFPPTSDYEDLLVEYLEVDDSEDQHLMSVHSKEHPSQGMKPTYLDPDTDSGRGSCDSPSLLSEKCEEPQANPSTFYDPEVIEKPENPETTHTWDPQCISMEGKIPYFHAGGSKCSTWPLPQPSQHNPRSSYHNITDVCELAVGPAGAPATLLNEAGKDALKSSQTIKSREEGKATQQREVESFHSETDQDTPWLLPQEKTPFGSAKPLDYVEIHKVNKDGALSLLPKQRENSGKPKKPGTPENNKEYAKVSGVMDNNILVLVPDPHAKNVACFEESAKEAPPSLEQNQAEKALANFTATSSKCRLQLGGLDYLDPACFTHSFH
Test: cell-based or functional assay

Binder	Baf3-hPRLR proliferation IC50 [µg/mL]
B1	0.22
B2	0.23
B3	0.15
B4	0.17
B5	0.16
B6	0.3
B7	0.31

Biological target: T9, mouse PRLR on Baf3-mPRLR cells (mouse, UniProt Q08501 20-608)
T9 sequence (looked up): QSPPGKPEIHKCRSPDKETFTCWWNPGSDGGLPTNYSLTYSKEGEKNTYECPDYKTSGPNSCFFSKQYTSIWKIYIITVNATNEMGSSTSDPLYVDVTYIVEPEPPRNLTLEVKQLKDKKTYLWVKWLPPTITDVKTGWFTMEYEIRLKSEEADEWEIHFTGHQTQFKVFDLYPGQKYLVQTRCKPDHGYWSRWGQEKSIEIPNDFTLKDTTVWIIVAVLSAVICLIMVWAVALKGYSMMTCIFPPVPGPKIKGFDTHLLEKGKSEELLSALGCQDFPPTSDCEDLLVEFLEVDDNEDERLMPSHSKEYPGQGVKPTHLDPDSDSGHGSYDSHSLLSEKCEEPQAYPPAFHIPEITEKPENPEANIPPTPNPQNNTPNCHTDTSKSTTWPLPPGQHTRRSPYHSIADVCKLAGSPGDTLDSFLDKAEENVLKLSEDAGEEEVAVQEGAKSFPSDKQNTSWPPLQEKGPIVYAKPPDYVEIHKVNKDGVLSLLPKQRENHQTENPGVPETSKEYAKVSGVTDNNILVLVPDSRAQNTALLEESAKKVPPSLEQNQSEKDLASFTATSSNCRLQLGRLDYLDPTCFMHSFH
Test: cell-based or functional assay

Binder	Baf3-mPRLR proliferation IC50 [µg/mL]
B6	> 30
B7	> 30

Biological target: cyno PRLR on Baf3-cyPRLR cells (cyno)
Test: cell-based or functional assay

Binder	Baf3-cyPRLR proliferation IC50 [µg/mL]
B1	0.31
B2	0.25
B3	0.23
B4	0.39
B5	0.22
B6	1.72
B7	2.24
